Test results as given in patent publication US11156615B2 (priority 2015, dated 2021).
Changes are numbered by the printed parent chain. Read-outs that look alike come from different tables or passages of the source.

Key:
[1] = format: physicochemical
Excerpt: (§1) Panels A-C: ttGBP182C.2.0-Imm0; Panels D-F: ttGBP182C.2.0-Imm1 (see FIG. 13). (A) Solution (Tm=347.6K). (B) Immobilized on Nickel-nitriloacetic acid (Ni-NTA) beads (Tm=346.7K). (C) Reconstituted, desiccated Ni-NTA beads (Tm=347.6K). (D) Fluorescence response of ttGGBP5.2 Imm1 immobilized on NHS-functionalized agarose beads. Data was collected on a Roche LightCycler real-time PCS instrument, recording emission intensities at 488 nm and 510 nm as a function of temperature in a 384-well microtiter plate. […] Temperature melts of twelve different wells. Apo protein thermostability as reported by the denaturation mid-point temperature is 349 K, similar to the protein free in solution. […] (F) Representative Langmuir ligand-binding curve extracted from the three-dimensional data.
(§2) Site-specific immobilization minimizes perturbation of the sensing mechanism. […] Similarly, hexa-lysine fusion domains were immobilized on agarose beads derivatized with N-hydroxysuccinimide, and the QNK- or βZif-fusion on iodacetyl-derivatized beads.

[2] = Thermostability: mid-point thermal denaturation temperature (Tm) from temperature-dependent fluorescence (Roche LightCycler); format: physicochemical; settings: for apoTm: Badan conjugate, apo-protein
In short: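 Unfolding tracked by SYPRO binding to denatured protein, fluorescence at 488 nm/510 nm recorded on a LightCycler as temperature rose in 1 K steps. Tm taken as denaturation mid-point, for protein in solution or immobilized on Ni-NTA or NHS-agarose beads.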

[3] = Glucose-dependent fluorescence emission intensity spectra of conjugates (Nanodrop3300); format: biochemical; settings: Badan conjugate of ttGGBP.17C mutant; Nanodrop3300
[4] = Galactose binding: isothermal fluorescence titrations of conjugates; settings: Badan conjugate; for S, selectivity = trueKd(galactose)/trueKd(glucose): S > 1, selective for glucose; for Kd: read-out: Galactose trueKd, monochromatic titration curves, room temperature
[5] = Glucose binding: isothermal fluorescence titrations, ratiometric (appKd) and monochromatic (trueKd) fits; settings: Badan conjugate, room temperature
Excerpt: 2 For a single glucose-binding site, the fractional saturation is given by
[formula] where ^apoIλ2 and ^satIλ2 are the emission intensities of the monochromatic signal at wavelength λ2 of the ligand-free and ligand-bound protein, respectively.

[6] = Glucose titration of bead-immobilized sensor; format: binding; settings: read-out: Kd (glucose); 25° C.; immobilized on NHS-functionalized agarose beads
Excerpt: as §1
Data were highly precise, being reproducible <0.2% coefficient of variance.
as §2

[7] = read-out: Glucose appKd, dichromatic ratiometry
[8] = read-out: Glucose trueKd, monochromatic titration curves

B1: ttGBP182C.2.0-Imm0: ttGGBP182C.2.0 immobilization fusion construct Imm0 (SEQ ID NO: 173), Acrylodan labelled (conjugate)
chain: MKQLNIGVAIYKFDDTFMTGVRNAMTAEAQGKAKLNMVDSQNSQPTQNDQVDLFITKKMNALAINPVDRTAAGTIIDKAKQANIPVVFFNKEPLPEDMKKWDKVYYVGAKAEQSGILQGQIMADYWKAHPEADKNHDGVMQYVMLMGEPGHQDAILRTQYSIQTVKDAGIKVQELAKDYANCDRVTAHDKMAAWLSSFGDKIEAVFANNDDMALGAIEALKSAGYFTGNKYIPVVGVDATAPGIQAIKDGTLLGTVLNDAKNQAKATFNIAYELAQGITPTKDNIGYDITDGKYVWIPYKKITKDNISDAEQGGSHHHHHH
modifications: Acrylodan label; ttGGBP182C.2.0_Imm0
For B1, which Tm ([1]; immobilized on Ni-NTA beads (FIG. 14B)) is on record?
The Tm was 73.6 °C.

And the Tm ([1]; reconstituted, desiccated Ni-NTA beads (FIG. 14C))?
The Tm was 74.5 °C.

What about the Tm ([2]; solution (FIG. 14A)) of the same molecule?
Its Tm is 74.5 °C.

B2: ttGGBP17C.28: affinity-tuning mutant, 17C background, SEQ ID NO: 86 (protein)
chain: B1 chain with F17C, K91R, E148Q, C182W, A260Y
modifications: ttGGBP17C.28 (affinity-tuning mutant, 17C background (Table 6) with signal peptide replaced with M and GGSHHHHHH at C-terminus)
Which “Type of fluorescence response to glucose” value [3] does the source give for B2 here?
The value was “i (i, intensity increase only)”.

And the apoTm [2]?
Its apoTm is 346 K.

What about the “S, selectivity = trueKd(galactose)/trueKd(glucose)” value [4] of the same molecule?
Its value is 37.

What about the Kd [4] of the same molecule?
The Kd was 2600 µM.

What about the Kd [5, 7] of the same molecule?
Its Kd is 60 µM.

And the Kd [5, 8]?
Its Kd is 70 µM.

B3: ttGGBP17C.27: affinity-tuning mutant, 17C background, SEQ ID NO: 85 (protein)
chain: B1 chain with F17C, K91R, E148Q, C182W, A260F
modifications: ttGGBP17C.27 (affinity-tuning mutant, 17C background (Table 6) with signal peptide replaced with M and GGSHHHHHH at C-terminus)
With B3 as the molecule, how does the “Type of fluorescence response to glucose” value [3] read?
The value was “i (i, intensity increase only)”.

And the apoTm [2]?
The apoTm was 346 K.

What about the “S, selectivity = trueKd(galactose)/trueKd(glucose)” value [4] of the same molecule?
Its value is 33.

And the Kd [4]?
Its Kd is 8800 µM.

What about the Kd [5, 7] of the same molecule?
Its Kd is 200 µM.

What about the Kd [5, 8] of the same molecule?
Its Kd is 300 µM.

B4: ttGGBP5.2 Imm1: ttGGBP182C.2.0 immobilization fusion construct Imm1 (SEQ ID NO: 175), labelled, on NHS-functionalized agarose beads (conjugate)
chain: MKQLNIGVAIYKFDDTFMTGVRNAMTAEAQGKAKLNMVDSQNSQPTQNDQVDLFITKKMNALAINPVDRTAAGTIIDKAKQANIPVVFFNKEPLPEDMKKWDKVYYVGAKAEQSGILQGQIMADYWKAHPEADKNHDGVMQYVMLMGEPGHQDAILRTQYSIQTVKDAGIKVQELAKDYANCDRVTAHDKMAAWLSSFGDKIEAVFANNDDMALGAIEALKSAGYFTGNKYIPVVGVDATAPGIQAIKDGTLLGTVLNDAKNQAKATFNIAYELAQGITPTKDNIGYDITDGKYVWIPYKKITKDNISDAEQGGSGGSKKKKKKGGSHHHHHH
modifications: fluorescent label; immobilized on NHS-agarose beads; ttGGBP182C.2.0_Imm1
With B4 as the molecule, how does the Kd [6] read?
The Kd was 4800 µM.

What about the “denaturation mid-point temperature (apo protein thermostability)” value [1] of the same molecule?
The value was 349 K.
